From paper PMC9133466 come the findings set out here.

The target in test [1] is amyloid beta (Aβ) of APP/PS1 mouse brain homogenate (human).
Test [2] addresses amyloid beta (Aβ) of human brain homogenate (human (endogenous in human brain)).
Test [3] has the same target. This is another data set of the same source.
The target is the same in test [4]. This is another data set of the same source.

Where no end group is shown, it is not given here. [ ]: non-standard residue; d: D form.

B1: RD2 (peptide)
peptide: [dP][dT][dL][dH][dT][dH][dN][dR][dR][dR][dR][dR]-NH2
modifications: N-terminus assumed
SMILES: CC(C)C[C@@H](NC(=O)[C@H](NC(=O)[C@H]1CCCN1)[C@H](C)O)C(=O)N[C@H](Cc1c[nH]cn1)C(=O)N[C@@H](C(=O)N[C@H](Cc1c[nH]cn1)C(=O)N[C@H](CC(N)=O)C(=O)N[C@H](CCCNC(=N)N)C(=O)N[C@H](CCCNC(=N)N)C(=O)N[C@H](CCCNC(=N)N)C(=O)N[C@H](CCCNC(=N)N)C(=O)N[C@H](CCCNC(=N)N)C(N)=O)[C@H](C)O
For the molecule B1, the reduction of Aβ oligomer concentration (Aβ with Aβ) by sFIDA; DGC fraction 10 of APP/PS1 mouse brain homogenate diluted 1:2, 0-50 μM RD2, 0 min to 20 h, 4 °C in test [1] is 81%. In test [2], this molecule returned a reduction of Aβ oligomer concentration (Aβ with Aβ) by sFIDA; human AD brain homogenate AD2 diluted 1:10, 0.31-20 μM RD2, 24 h of 93%; a reduction of Aβ oligomer concentration (Aβ with Aβ) by sFIDA; human AD brain homogenate AD2 diluted 1:20, 0.31-20 μM RD2, 24 h of 95%; a reduction of Aβ oligomer concentration (Aβ with Aβ) by sFIDA; human AD brain homogenate AD2 diluted 1:40, 0.31-20 μM RD2, 24 h of 96%. In test [3], this molecule displayed a decrease of Aβ oligomer concentration (Aβ with Aβ) by sFIDA; human AD brain homogenate AD2 diluted 1:20, 1.25-20 μM RD2, 0 to 1,365 min of 93%; a decrease of Aβ oligomer concentration (Aβ with Aβ) by sFIDA; human AD brain homogenate AD4 diluted 1:20, 1.25-20 μM RD2, 0 to about 23 h of 91%; a decrease of Aβ oligomer concentration (Aβ with Aβ) by sFIDA; human AD brain homogenate AD5 diluted 1:20, 1.25-20 μM RD2, 0 to about 23 h of 89%; a decrease of Aβ oligomer concentration (Aβ with Aβ) by sFIDA; human AD brain homogenate AD6 diluted 1:20, 1.25-20 μM RD2, 0 to 1,425 min of 90%. In test [3], this molecule displayed a reaction rate constant k (1,fast) of Aβ oligomer elimination by RD2 (global double exponential fit, effective RD2 1 and 16 μM); homogenate AD2 (L∗mol^−1∗min^−1) of 2330; a reaction rate constant k (1,fast) of Aβ oligomer elimination by RD2 (global double exponential fit, effective RD2 1 and 16 μM); homogenate AD4 (L∗mol^−1∗min^−1) of 2930; a reaction rate constant k (1,fast) of Aβ oligomer elimination by RD2 (global double exponential fit, effective RD2 1 and 16 μM); homogenate AD5 (L∗mol^−1∗min^−1) of 2370; a reaction rate constant k (1,fast) of Aβ oligomer elimination by RD2 (global double exponential fit, effective RD2 1 and 16 μM); homogenate AD6 (L∗mol^−1∗min^−1) of 1280. In test [3], the reaction rate constant k (1,slow) of Aβ oligomer elimination by RD2 (global double exponential fit, effective RD2 1 and 16 μM); homogenate AD2 (L∗mol^−1∗min^−1) is 76; the reaction rate constant k (1,slow) of Aβ oligomer elimination by RD2 (global double exponential fit, effective RD2 1 and 16 μM); homogenate AD4 (L∗mol^−1∗min^−1) was 37; the reaction rate constant k (1,slow) of Aβ oligomer elimination by RD2 (global double exponential fit, effective RD2 1 and 16 μM); homogenate AD5 (L∗mol^−1∗min^−1) turned out to be 50; the reaction rate constant k (1,slow) of Aβ oligomer elimination by RD2 (global double exponential fit, effective RD2 1 and 16 μM); homogenate AD6 (L∗mol^−1∗min^−1) was 48. Also, in test [4], the reduction of Aβ oligomer concentration (Aβ with Aβ) by sFIDA; DGC fraction 10 of human AD brain homogenate AD2 diluted 1:10, 5 and 20 μM RD2, 0 to 1,380 min was 92%; the reduction of Aβ oligomer concentration (Aβ with Aβ) by sFIDA; DGC fraction 10 of human AD brain homogenate AD6 diluted 1:10, 5 and 20 μM RD2, 0 to 1,380 min is 88%; the reduction of Aβ oligomer concentration (Aβ with Aβ) by sFIDA; pooled DGC fractions 4 to 6 of human AD brain homogenate AD2, 20 μM RD2, 1,380 min turned out to be 64%; the reduction of Aβ oligomer concentration (Aβ with Aβ) by sFIDA; pooled DGC fractions 4 to 6 of human AD brain homogenate AD6, 20 μM RD2, 1,380 min is 62%.

B2: D1 (peptide)
peptide: [dQ][dS][dH][dY][dR][dH][dI][dS][dP][dA][dQ][dV]-NH2
modifications: N-terminus assumed
SMILES: CC[C@@H](C)[C@@H](NC(=O)[C@@H](Cc1c[nH]cn1)NC(=O)[C@@H](CCCNC(=N)N)NC(=O)[C@@H](Cc1ccc(O)cc1)NC(=O)[C@@H](Cc1c[nH]cn1)NC(=O)[C@@H](CO)NC(=O)[C@H](N)CCC(N)=O)C(=O)N[C@H](CO)C(=O)N1CCC[C@@H]1C(=O)N[C@H](C)C(=O)N[C@H](CCC(N)=O)C(=O)N[C@@H](C(N)=O)C(C)C
In the case of B2, the reduction of Aβ oligomer signal by sFIDA; human AD brain homogenate AD2 diluted 1:40 (similar at 1:10 and 1:20), 0.31-20 μM D1, 24 h in test [2] is 27%.
